Read-outs that look alike come from different tables or passages of the source.

Data set [1] deals with T1, PDL1 (CD274, B7-H1) (Homo sapiens, UniProt Q9NZQ7 Q9NZQ7:19-238). Briefly: filter; passed cut-off of 5 for PDL1/BSA signal, qPCR. On the procedure:
Evaluation of the Relative Binding Ability of Candidate PDL1 Aptamers Using Nitrocellulose Filter Binding Assay The sequences of candidate PDL1 targeting aptamers were ranked by output reads from next-generation sequencing and sequences with output reads over 100 were analyzed. Among them, top 50 candidate aptamer sequences accounted for over 85% output reads. To evaluate their binding abilities toward PDL1, these top 50 candidate aptamers were synthesized and analyzed by nitrocellulose filter binding assay. The binding abilities toward BSA were used as negative control. In brief, candidate aptamer was incubated with PDL1 or BSA, respectively. Aptamer-protein complexes were collected by nitrocellulose filter and eluted by heating. The number of eluted aptamer was quantified by quantitative PCR and normalized by dividing the signal from PDL1 group to signal from BSA group. In order to find out the PDL1 aptamer with higher specificity, the cut-off value was set at 5.

Data set [2] deals with T1, PDL1 (CD274, B7-H1). Briefly: competition; ED50 for blocking PD-1:PDL1, ELISA. On the procedure: Identification of Antagonistic PDL1 Aptamers Using an ELISA-Based Competition Assay To investigate the efficacy of candidate PDL1 aptamers as antagonistic agents, ELISA-based competition assay was performed. Human PDL1 recombinant protein (2 µg/ml) was coated onto wells of 96-well ELISA plates and blocked by BSA (10 mg/ml). Human PD-1 protein (0.6 µg/ml) and aptamer (500 nmole/l) were added into wells simultaneously. After washing away unbound human PD-1 protein, PD-1 protein which remained in wells was detected by HRP-labeled anti-human IgG antibody. TMB was used as HRP substrate for color development and absorbance at 652 nm was detected by ELISA plate reader. Remained human PD-1 protein amount was quantified using standard curve which built by serial diluted human PD-1 protein. Wells without PDL1 coating were used as negative control.
To further investigate 50% effective dose of AP14 and AP32 as PDL1 blocking agents, serial diluted AP14 and AP32 ranged from 12.5 nmole/l to 500 nmole/l were used in previously mentioned ELISA-based competition assay.
Background: An ELISA detects its analyte on a solid surface through an enzyme-linked reagent.

Data set [3] addresses PDL1 (CD274) on CT26 cells (Mus musculus, UniProt Q9EP73 Q9EP73:19-290). Briefly: flow; apparent Kd on CT26 cells. The settings on record: tags: endogenous, CT26 colorectal cancer cells; label: fluorescent dye (not specified).
Data set [4] deals with PDL1 (CD274) on LL/2 cells (Mus musculus, UniProt Q9EP73 Q9EP73:19-290). The experiment in a line: flow; apparent Kd on LL/2 cells. The settings on record: tags: endogenous, LL/2 lung carcinoma cells; label: fluorescent dye (not specified).
Setting [5] is: Mfold-predicted long terminal stem and two short stem loops.

T1 sequence (Q9NZQ7 19-238, one chain of several): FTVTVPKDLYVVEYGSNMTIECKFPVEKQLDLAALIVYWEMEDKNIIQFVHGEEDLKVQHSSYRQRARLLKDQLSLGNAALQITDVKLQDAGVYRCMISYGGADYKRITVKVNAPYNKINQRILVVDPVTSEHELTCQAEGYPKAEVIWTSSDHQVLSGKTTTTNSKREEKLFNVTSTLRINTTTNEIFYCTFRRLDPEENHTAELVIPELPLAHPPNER
Chain of PDL1 (CD274) on CT26 cells (Q9EP73 19-290, one chain of several): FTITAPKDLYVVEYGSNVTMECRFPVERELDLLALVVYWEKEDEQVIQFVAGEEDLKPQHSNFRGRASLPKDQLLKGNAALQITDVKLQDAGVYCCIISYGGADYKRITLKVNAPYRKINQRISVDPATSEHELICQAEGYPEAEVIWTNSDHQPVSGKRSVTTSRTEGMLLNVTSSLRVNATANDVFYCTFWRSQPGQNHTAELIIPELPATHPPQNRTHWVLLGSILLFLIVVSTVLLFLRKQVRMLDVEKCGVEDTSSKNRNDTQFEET
Chain of PDL1 (CD274) on LL/2 cells (Q9EP73 19-290, one chain of several): as above

B1: AP22 (ssDNA)
DNA: TCCCTACGGCGCTAACAAACTAGGGTCCATTTGTGTACCTGCGAGCCACCGTGCTACAAC
In data set [1], B1 returned a binding signal of more than 5 fold over BSA.

B2: AP32 (62-nt) (ssDNA)
DNA: TCCCTACGGCGCTAACACATCAACTTGATAGACAACTGCGTCCACTGCCACCGTGCTACAAC
As for B2, in data set [1] (setting [5]), the binding signal is more than 5 fold over BSA. The EC50 (as a rule, the concentration needed to bring the measured effect to its halfway point) in data set [2] (setting [5]) was 12 nM.

B3: AP48 (ssDNA)
DNA: TCCCTACGGCGCTAACCATGTTCCTTTCGTTCTGCCTTTTCCTTCCGCCACCGTGCTACAAC
In the case of B3, in data set [1], the binding signal is more than 5 fold over BSA.

B4: AP14 (ssDNA)
DNA: TCCCTACGGCGCTAACCACTCAATAATTCCACTGCTACATACGTTTGCCACCGTGCTACAAC
B4 displayed a binding signal in data set [1] of more than 5 fold over BSA. Besides, in data set [2], the EC50 amounted to 41 nM.

B5: AP36 (ssDNA)
DNA: TCCCTACGGCGCTAACCATGTTTTCGAAAGACAATCCGCTGCCCTGGCCACCGTGCTACAAC
As to B5, the binding signal in data set [1] is more than 5 fold over BSA.

B6: AP33 (ssDNA)
DNA: TCCCTACGGCGCTAACCATCTGGTACCTTACGACGCTTCATCTCCCGCCACCGTGCTACAAC
Molecule B6 returned a binding signal in data set [1] of more than 5 fold over BSA.

Take ACGGGCCACATCAACTCATTGATAGACAATGCGTCCACTGCCCGT (ssDNA) [aptPDL1 fluorescently labeled]: the values for the Kd in data set [3] and in data set [4] were approximately 250 nM and approximately 155 nM, respectively.
